Source: patent publication US20060281130A1 (ENKAM PHARMACEUTICALS A S, published 2006)
No end group written: not given here.

Key:
[1] = target: T1, combined FGFR1 Ig modules 2, 3 (mouse, UniProt P16092 141-365); assay: SPR (BIAcoreX), FGFR Ig modules 2, 3 immobilized on CM5
T1 construct: Expressed in Drosophila S2 cells; immobilized on CM5 chip by amine coupling in the SPR experiments; also called FGFR Ig modules 2, 3; FGFR modules 2, 3
T1 sequence: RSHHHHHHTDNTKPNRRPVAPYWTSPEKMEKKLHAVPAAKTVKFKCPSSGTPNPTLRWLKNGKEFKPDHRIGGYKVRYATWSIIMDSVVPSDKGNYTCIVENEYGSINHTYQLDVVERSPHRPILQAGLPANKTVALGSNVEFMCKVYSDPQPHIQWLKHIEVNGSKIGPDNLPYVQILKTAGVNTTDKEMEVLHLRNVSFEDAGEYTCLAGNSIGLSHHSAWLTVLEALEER

[2] = target: FGFR on embryonic rat hippocampal neurons (rat); assay: cell-based or functional assay
[3] = target: T1, combined FGFR1 Ig modules 2, 3; assay: SPR, FGFR Ig modules 2, 3 immobilized
[4] = target: T1, combined FGFR1 Ig modules 2, 3; assay: SPR, apparent Kd, FGFR Ig modules 2, 3 immobilized

B1: combined NCAM F3 modules 1, 2 (other, rat)
chain: AGHHHHHHQADTPSSPSIDRVEPYSSTAQVQFDEPEATGGVPILKYKAEWKSLGEEAWHSKWYDAKEANMEGIVTIMGLKPETRYAVRLAALNGKGLGEISAATEFKTQPVREPSAPKLEGQMGEDGNSIKVNLIKQDDGGSPIRHYLVKYRALASEWKPEIRLPSGSDHVMLKSLDWNAEYEVYVVAENQQGKSKAAHFVFRTSAQ
notes: range 507-705; Recombinant, expressed in P. pastoris KM71; also called double module protein
Q: With B1 as the binder, how does the Kd [1] read?
A: 9.97 µM

Q: And the koff [1]?
A: 0.00556 s⁻¹

Q: What about the kon [1] of the same binder?
A: 889 M⁻¹ s⁻¹

Q: Which “neurite outgrowth from hippocampal neurons, stimulatory effect relative to the non-mutated peptide” value [2] does the source give for EVAVVAENQQGASAA [FG loop peptide in which Y74, K83 and K85 were substituted with alanine] here?
A: ~60%

B2: dendrimeric FG loop peptide (SEQ ID NO: 1) (peptide)
peptide: EVYVVAENQQGKSKA
modifications: also: tetrameric dendrimer: four peptides joined through their C-termini to a three-lysine backbone
notes: Tetrameric dendrimer on a three-lysine backbone; also called dendrimeric version of the FG loop peptide
Q: What does the source list for B2?
A: koff [3]: 0.00397 s⁻¹; kon [3]: 2070 M⁻¹ s⁻¹; Kd [4]: 2.58 µM

Q: Which “neurite outgrowth from hippocampal neurons, stimulatory effect relative to the entire FG loop peptide” value [2] does the source give for VAENQQGKS [truncated FG loop peptide, nonamer V78-S84 (as printed)] here?
A: ~50%

Q: For AENQQGK [truncated FG loop peptide, heptamer Ala77-K83], which “neurite outgrowth from hippocampal neurons, stimulatory effect relative to the entire FG loop peptide” value [2] is on record?
A: ~50%
